What was measured:
[1] = tested on: NLRP3 L266F (NOMID, C790T) (human); experiment: competition pulldown (streptavidin beads, western blot); conditions: elution from biotinylated mtDNA beads; oxidized guanine (8-oxoguanine); EMSA and pulldown: 50 mM Tris pH 7.4, 100 mM NaCl, 2 mM MgCl2, 12% glycerol, 4 C overnight (EMSA plus 2e-5 mg/ml salmon sperm DNA, 1e-5 uM ox-mtDNA); Fig …
[2] = tested on: NLRP3 WT (human); experiment: as above; conditions: elution from biotinylated mtDNA beads, EMSA and pulldown: 50 mM Tris pH 7.4, 100 mM NaCl, 2 mM MgCl2, 12% glycerol, 4 C overnight (EMSA plus 2e-5 mg/ml salmon sperm DNA, 1e-5 uM ox-mtDNA), Fig …

Substance | IC50 [1] [nM] | IC50 ([2]; poor fit, R2 0.6, text prints 247 nM, oxidized guanine (8-oxoguanine)) [nM] | IC50 ([2]; R2 0.98, abstract prints 4 nM) [nM]
ox-mtDNA competitor (unlabeled) | 8.1 | 247 | 
non-oxidized mtDNA competitor (unlabeled) |  |  | 4.8

— article PMC10229695
